From patent US9040462 (RIGEL PHARMACEUTICALS, dated 2015)

Molecular target: Tet DNA binding domain only (UniProt P04483 1-207)
Assay: mammalian two-hybrid luciferase reporter, Phoenix cells

Chain of Tet DNA binding domain only (P04483 whole entry, the tested form may be a part): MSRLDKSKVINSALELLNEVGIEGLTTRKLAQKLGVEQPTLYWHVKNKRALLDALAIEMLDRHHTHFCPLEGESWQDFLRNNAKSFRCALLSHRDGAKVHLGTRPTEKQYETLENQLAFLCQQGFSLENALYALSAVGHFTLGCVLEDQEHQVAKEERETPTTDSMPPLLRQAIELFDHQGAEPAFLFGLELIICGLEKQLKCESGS

B1: VP16 activation domain only (other)
chain: APPTDVSLGDELHLDGEDVAMAHADALDDFDLDMLGDGDSPGPGFTPHDSAPYGALDMADFEFEQMFTDALGIDEYGG
notes: also called pVACT
B1: no binding.
